Measurements as given in patent publication US20210332428A1.

Experiments:
[1] = molecular target: human β2-adrenergic receptor (ADRB2) in nanodiscs, GRK2-phosphorylated, DNA barcoded (human) (UniProt P07550); assay: polony co-localization, β-arr2 titration on isoproterenol-saturated phosphorylated ADRB2, one-site-specific fit
[2] = molecular target: human β2-adrenergic receptor (ADRB2) in nanodiscs, GRK2-phosphorylated, DNA barcoded (human) (UniProt P07550); assay: polony co-localization at varied β-arr2 concentrations; reference is ADRB2 without GRK2-mediated phosphorylation

## β-arr2-TolA-HaloTag (β-arrestin-2, DNA barcoded) (from UniProt P19934 131-225)
[1]
  Kd: 950 pM
[2]
  fold increase of the average co-localization ratios after the phosphorylation: 3 to 11 fold
